# Data as given in ChEMBL document CHEMBL1140936, “Topological polar surface area defines substrate transport by multidrug resistance associated protein 1 (MRP1/ABCC1)” (J Med Chem, 2009).
# B1: Multidrug resistance-associated protein 1 (Homo sapiens) (protein)
# chain: MALRGFCSADGSDPLWDWNVTWNTSNPDFTKCFQNTVLVWVPCFYLWACFPFYFLYLSRHDRGYIQMTPLNKTKTALGFLLWIVCWADLFYSFWERSRGIFLAPVFLVSPTLLGITMLLATFLIQLERRKGVQSSGIMLTFWLVALVCALAILRSKIMTALKEDAQVDLFRDITFYVYFSLLLIQLVLSCFSDRSPLFSETIHDPNPCPESSASFLSRITFWWITGLIVRGYRQPLEGSDLWSLNKEDTSEQVVPVLVKNWKKECAKTRKQPVKVVYSSKDPAQPKESSKVDANEEVEALIVKSPQKEWNPSLFKVLYKTFGPYFLMSFFFKAIHDLMMFSGPQILKLLIKFVNDTKAPDWQGYFYTVLLFVTACLQTLVLHQYFHICFVSGMRIKTAVIGAVYRKALVITNSARKSSTVGEIVNLMSVDAQRFMDLATYINMIWSAPLQVILALYLLWLNLGPSVLAGVAVMVLMVPVNAVMAMKTKTYQVAHMKSKDNRIKLMNEILNGIKVLKLYAWELAFKDKVLAIRQEELKVLKKSAYLSAVGTFTWVCTPFLVALCTFAVYVTIDENNILDAQTAFVSLALFNILRFPLNILPMVISSIVQASVSLKRLRIFLSHEELEPDSIERRPVKDGGGTNSITVRNATFTWARSDPPTLNGITFSIPEGALVAVVGQVGCGKSSLLSALLAEMDKVEGHVAIKGSVAYVPQQAWIQNDSLRENILFGCQLEEPYYRSVIQACALLPDLEILPSGDRTEIGEKGVNLSGGQKQRVSLARAVYSNADIYLFDDPLSAVDAHVGKHIFENVIGPKGMLKNKTRILVTHSMSYLPQVDVIIVMSGGKISEMGSYQELLARDGAFAEFLRTYASTEQEQDAEENGVTGVSGPGKEAKQMENGMLVTDSAGKQLQRQLSSSSSYSGDISRHHNSTAELQKAEAKKEETWKLMEADKAQTGQVKLSVYWDYMKAIGLFISFLSIFLFMCNHVSALASNYWLSLWTDDPIVNGTQEHTKVRLSVYGALGISQGIAVFGYSMAVSIGGILASRCLHVDLLHSILRSPMSFFERTPSGNLVNRFSKELDTVDSMIPEVIKMFMGSLFNVIGACIVILLATPIAAIIIPPLGLIYFFVQRFYVASSRQLKRLESVSRSPVYSHFNETLLGVSVIRAFEEQERFIHQSDLKVDENQKAYYPSIVANRWLAVRLECVGNCIVLFAALFAVISRHSLSAGLVGLSVSYSLQVTTYLNWLVRMSSEMETNIVAVERLKEYSETEKEAPWQIQETAPPSSWPQVGRVEFRNYCLRYREDLDFVLRHINVTINGGEKVGIVGRTGAGKSSLTLGLFRINESAEGEIIIDGINIAKIGLHDLRFKITIIPQDPVLFSGSLRMNLDPFSQYSDEEVWTSLELAHLKDFVSALPDKLDHECAEGGENLSVGQRQLVCLARALLRKTKILVLDEATAAVDLETDDLIQSTIRTQFEDCTVLTIAHRLNTIMDYTRVIVLDKGEIQEYGAPSDLLQQRGLFYSMAKDAGLV
# Experiments:
# not read = substrate: N[C@@H](CCC(=O)N[C@@H](CS)C(=O)NCC(=O)O)C(=O)O; assay: not read
# [1] = substrate: N[C@@H](CCC(=O)N[C@@H](CSSC[C@H](NC(=O)CC[C@H](N)C(=O)O)C(=O)NCC(=O)O)C(=O)NCC(=O)O)C(=O)O; assay: Activity of MRP1
protein,measurement,setting,value
B1,Km,not read,5000 µM
same,Km,[1],93 µM
